Experimental data: article PMC5428420, “The trimer interface in the quaternary structure of the bifunctional prokaryotic FAD synthetase from Corynebacterium ammoniagenes” (Scientific Reports, 2017)
Where two headings read alike, the source gives them in different places.

Columns and labels:
[1] = target: T1, CaFADS (Corynebacterium ammoniagenes, UniProt Q59263); design: made in house; host or cells: E. coli BL21(DE3); details: ITC, ref [16], [21], cited from earlier work
[2] = target: T1, CaFADS; details: ITC; in brackets; ref [16], [21]; cited from earlier work
[3] = target: T1, CaFADS; design: made in house; host or cells: E. coli BL21(DE3); details: ITC, ref [16], [21], cited from earlier work; remark: listed apart in the source
[4] = target: T2, CaFADS:ADP:Mg^2+ complex (Corynebacterium ammoniagenes, UniProt Q59263); details: FMN binding to preformed CaFADS:ADP:Mg2+ complex; ITC, 25 °C, pH 7.0, 10 mM MgCl2; ref [16], [21]; read-out: K d FADS:ADP:FMN, RFK site; cited from earlier work
T2 construct: made in house; host or cells: E. coli BL21(DE3)

[5] = target: T1, CaFADS; design: made in house; host or cells: E. coli BL21(DE3); details: ITC, ref [16], [21], cited from earlier work; remark: listed apart in the source
[6] = system: CaFADS RFK activity; details: 25 °C
Procedure: The CaFADS RFK activity was measured at 25 °C in 500 µl of 20 mM PIPES, 0.8 mM MgCl2, pH 7.0, containing 0.5–45 µM RF and 10–500 µM ATP. Reactions were initiated by addition of ~20 nM of the monomeric enzyme. After 1 min incubation at 25 °C, the reactions were stopped by boiling the mixtures for 5 min. The flavin composition in the supernatant was determined using an Alliance HPLC system (Waters), equipped with a 2707 autosampler and an HSST3 column (4.6 × 150 mm, 3.5 µm, Waters), preceded by a precolumn (4.6 × 20 mm, 3.5 µm, Waters). Flavins (FMN or FAD) produced from RF were quantified using their corresponding standard curves, as previously described[21].
When an excess of RF inhibited the RFK activity, the experimental data were interpreted through a model describing the substrate inhibition of a bi-substrate mechanism[26]. In these situations, the errors in apparent K m and k cat (^app K m and ^app k cat) increased as the inhibition constant (K i) approached K m ^S. Experiments were performed in triplicate.

[7] = target: CaFADS FMNAT activity (Corynebacterium ammoniagenes, UniProt Q59263); test: Steady-state kinetics of the FMNAT activity (FMN → FAD), continuous fluorometric assay; type: biochemical; details: 25 °C, 20 mM PIPES pH 7.0, 10 mM MgCl2
Procedure: The CaFADS FMNAT activity was fluorometrically measured using a continuous assay. […] A Cary Eclipse spectrophotofluorometer with excitation and emission wavelengths of 420 nm and 530 nm, respectively, was used. FAD and FMN fluorescence were individually calibrated using standard solutions and the data were analyzed as previously described.

[8] = RF concentration giving ~80% of maximal activity, pH 7.0, 0.8 mM MgCl2

B1: WT: wild-type bifunctional FAD synthetase from Corynebacterium ammoniagenes (CaFADS) (protein)
chain: MDIWYGTAAVPKDLDNSAVTIGVFDGVHRGHQKLINATVEKAREVGAKAIMVTFDPHPVSVFLPRRAPLGITTLAERFALAESFGIDGVLVIDFTRELSGTSPEKYVEFLLEDTLHASHVVVGANFTFGENAAGTADSLRQICQSRLTVDVIDLLDDEGVRISSTTVREFLSEGDVARANWALGRHFYVTGPVVRGAGRGGKELGFPTANQYFHDTVALPADGVYAGWLTILPTEAPVSGNMEPEVAYAAAISVGTNPTFGDEQRSVESFVLDRDADLYGHDVKVEFVDHVRAMEKFDSVEQLLEVMAKDVQKTRTLLAQDVQAHKMAPETYFLQAES
- Kd ([1]; 25 °C, pH 7.0, 10 mM MgCl2, read-out: K d FADS:FMN): 7.8 µM
- stoichiometry FADS:FMN ([1]; in brackets): 1
- stoichiometry FADS:RF [2]: 2
- Kd ([3]; 25 °C, pH 7.0, 10 mM MgCl2, read-out: K d FADS:FAD): 0.74 µM
- stoichiometry FADS:FAD ([3]; in brackets): 1
- Kd [4]: 0.9 ± 0.1 µM
- Kd ([5]; 25 °C, pH 7.0, 10 mM MgCl2, average K d,av of two sites, read-out: K d FADS:ATP): 30.2 µM
- stoichiometry FADS:ATP ([5]; in brackets): 2
- K m ATP RFK activity [6, 8]: 28.2 ± 3.9 µM
- k cat RFK activity as function of ATP [6, 8]: 2.58 ± 0.083 s⁻¹
- k cat/K m ATP RFK activity [6, 8]: 91700 ± 13000 M⁻¹ s⁻¹
- k cat (apparent) RFK activity ([6]; saturating ATP, apparent constant (RF substrate inhibition), 20 mM PIPES pH 7.0, 0.8 mM MgCl2): 6.8 ± 3.83 s⁻¹
- K m RF (apparent) RFK activity ([6]; saturating ATP, apparent constant, 20 mM PIPES pH 7.0, 0.8 mM MgCl2): 11.7 ± 3.0 µM
- k cat/K m RF RFK activity ([6]; saturating ATP, apparent, pH 7.0, 0.8 mM MgCl2): 582000 ± 360000 M⁻¹ s⁻¹
- K m ATP FMNAT activity [7]: 22.4 ± 2.0 µM
- K m FMN FMNAT activity [7]: 10.1 ± 1.0 µM
- k cat FMNAT activity [7]: 0.0917 ± 0.0083 s⁻¹
- k cat/K m ATP FMNAT activity [7]: 4170 ± 500 M⁻¹ s⁻¹
- k cat/K m FMN FMNAT activity [7]: 9000 ± 1200 M⁻¹ s⁻¹
